From article PMC3409459, “Absorption, distribution, metabolism and excretion of peginesatide, a novel erythropoiesis-stimulating agent, in rats” (Xenobiotica; the Fate of Foreign Compounds in Biological …, 2011)

Tests used:
[1] = parameters: species or system male Sprague-Dawley rats; conditions: rat, in vivo, iv
Protocol: The metabolite profiling in the biological samples from rats dosed with [^14C]-peginesatide was performed by high-performance liquid chromatography (HPLC). The radiolabeled materials in the samples of plasma and aqueous homoge-nates of tissues and feces were extracted with five volumes of methanol containing 0.1% of trifluoroacetic acid (TFA), mixed and centrifuged at 1500g at 4°C for l0 min to obtain supernatant. A portion of the supernatant was counted to estimate the extraction recovery of [^14C]-peginesatide and its related compounds in the biological samples. The rest of the supernatant was evaporated to dryness under a nitrogen gas stream. The residue was re-dissolved in a small volume of equal parts mobile phase [MP(A)] and B [MP(B)] for chromatographic analysis. The HPLC system (Simadzu, Kyoto, Japan) consisted of a LC-lOADvp pump, a CTO-lOACvp column oven, an SPD-lOAvp UV detector, and an SCL-lOAvp system controller. […] A mixture of 0.1% TFA aqueous solution and 0.1% TFA in methanol solution were used for MP(A) and MP(B), respectively. The flow rate was 0.5mL/min, and the peaks were monitored by a UV absorption detector at 215 run. The time for the gradient elution was as follows: the concentration of MP(B) was increased from 50 to 80% and from 80 to 83% over a period of 2-10min and 10-20min, respectively. […] The effluentwas collected into 0.5mL size fractions, followed by counting of the radioactivity (LSC). Under these conditions unchanged peginesatide and mono-PEG eluted at approximately 22 and 10 min, respectively.
The urine and fecal samples were obtained from the animals (n = 3) dosed in the mass balance study. Urine and fecal samples were collected every 24h and were combined into 2 aliquots (0-168 and 168-336h) for metabolite analysis. The urine and fecal samples were subjected to analysis by HPLC-fraction collection. Urine sample radioactivity was measured by LSC and fecal homogenate samples were measured by LSC following combustion.

[2] = Mass balance study (urine, feces, expired air, carcass); conditions: initial 3 days after dosing; single IV 5 mg·kg^−1
Excerpt: Radioactivity in diluted formulations, plasma, urine, and expired air (CO2-absorbent solution) was quantitated by mixingwith liquid scintillator Hionic-Fluor (PerkinElmer Life and Analytical Sciences) followed by liquid scintillation counting (LSC). Solid samples were homogenized (10 or 20% w/v in distilled water) before combustion in a sample oxidizer (A030701; PerkinElmer Life and Analytical Sciences) with Carbo-Sorb E (PerkinElmer Life and Analytical Sciences) as a carbon dioxide absorbent and Permafluor E^+ (PerkinElmer Life and Analytical Sciences) as a liquid scintillator. Total captured radioactivity was subsequently measured via LSC.
Urine and feces were collected at 24-h intervals up to 14 days after dosing and expired air was collected up to 24 h after dosing. The levels of radioactivity in urine and expired air were measured by LSC and in feces by LSC following combustion. After the final collection of excreta at 2 weeks, the animals were sacrificed and the carcasses were dissolved in potassium hydroxide/distilled water/ethanol (3:3:7, w/v/v), and examined for residual radioactivity by LSC.

For Peginesatide, the “Percent dose excretion, Feces 0–168 h” value [1] was 1.9 % dose, the “Percent dose excretion, Feces 0–336 h” value [1] was 1.9 % dose and the “Percent dose excretion, Feces 168–336 h” value [1] was “LOQ (0)”. The “Percent dose excretion, Urine 0–168 h” value [1] was 23.3 % dose, the “Percent dose excretion, Urine 0–336 h” value [1] was 27.5 % dose and the “Percent dose excretion, Urine 168–336 h” value [1] was 4.2 % dose. For the same substance, the “fecal recovery of the total radioactive dose” value [2] was 5 % of the total radioactive dose and the “urinary recovery of the total radioactive dose” value [2] was 23 % of the total radioactive dose.
